The data set in a line: soluble on expression in E. coli; label from the status in PepcDB or PDB records.
As for “GSGIMAASRPLSRFWEWGKNIVCVGRNYADHVREMRSAVLSEPVLFLKPSTAYAPEGSPILMPAYTRNLHHELELGVVMGKRCRAVPEAAAMDYVGGYALCLDMTARDVQDECKKKGLPWTLAKSFTASCPVSAFVPKEKIPDPHKLKLWLKVNGELRQEGETSSMIFSIPYIISYVSKIITLEEGDIILTGTPKGVGPVKENDEIEAGIHGLVSMTFKVEKPEY”, the “soluble on expression in E. coli” value is “soluble”.

In the case of “MLELSESNIHLNANAIDKQQAIEMAVSALVQAGNVENGYLQGMLARELQTSTFLGNGIAIPHGTLDTRLMVKKTGVQVFQFPQGIEWGEGNIAYVVIGIAARSDEHLSLLRQLTHVLSDEDTAAKLAKITDVAEFCAILMGETIDPFEIPAANISLDVNTQSLLTLVAINAGQLQVQSAVENRFISEVINNAALPLGKGLWVTDSVVGNVKNALAFSRAKTIFSHNGKAVKGVITVSAVGDQINPTLVRLLDDDVQTTLLNGNSTEILTALLGSSSDVETQSVEGAVVGTFTIRNEHGLHARPSANLVNEVKKFTSKITMQNLTRESEVVSAKSLMKIVALGVTQGHRLRFVAEGEDAKQAIESLGKAIANGLGENVSAVPPSEPDTIEIMGDQIHTPAVTEDDNLPANAIEAVFVIKNEQGLHARPSAILVNEVKKYNASVAVQNLDRNSQLVSAKSLMKIVALGVVKGTRLRFVATGEEAQQAIDGIGAVIESGLGE”, the “soluble on expression in E. coli” value is “not soluble”.

Take “MSLSKFVLGGLWPETGSLAYLAPPELAAEKLAVKDINDAGGVLGNKITTVDADTSDADHADQNTSAAQSVLSKNPSFIIGPASSSVVKNTYKSITSQNIPMLSMGATSASFSGLSDYFFRTVAPDTVQGAVMGNLIAQDGVQKLAIAVFNDEYGTGLRDTIVKTASAAGVDIIYGEKDTFDPTETNFSSIATAIKASNPDATLVIAFDQTKPLLKALASAGVNTKKLYFVDGNTSDYSSELDAGLLEGSKGTIPGINPSDDFVKRLESTGVDLKNTTTYGAETYDGIILAALAAQKGGSADGKTIQANMAAVSGSTKGEKCDSYKACVALLKDGKEIQYKGQTSIGAFNDAHDPSSASIGVYKYDADNKPVFDHSQEGSVPKAEGHHHHHH”: the “soluble on expression in E. coli” value was “soluble”.

On to “MRMGRYFGTSGIREVVNEKLTPELALKVGLALGTYLQEGKVVIGCDTRTSSVMLKNAVISGLLATGIDVIDIGLAPTPLTGFAIRLYNAEAGVTITASHNPPQYNGIKVWDRDGMAYTPDKEHELEKIIESGNFRRVPWNEVGTLKTANPRKEYIEAILREINLKGSYTVVIDAGNGAGSIVSPYLHRELGNRVITLNSDPSGFFVRELEPNKESLSMLEKTVKVLNADIGIAHDGDADRVGVVDENGEFVEYEVMLSLIAGYMLKKYGKGKIVTTVDAGFALDDYIRELGGEVVRTRVGDVAVAEELVKHGGVFGGEPSGTWIMPQWNLTPDGIFASALVLEMIDRLGPIGELAKDVPKYVTLRKKIPCSNELKNKVMNKIADLIPREFSYERIITIDGIRIENDDWWILFRPSGTEPIMRITLEAHTEEMAERLMKKAENLVKSVIKDLSS”, for which the “soluble on expression in E. coli” value was “soluble”.

Regarding “AIALTYIILVLHLQNHVWEDVTVHNSSLPPLAIKHPECLGLLHQLERSTDVWIQHYCILKDGCLYFYASIRSTQASGGLYLQGYSVSEQTHGFEQPVIELKPSSEEFKTFYFCAENKTENQRWIAALKTSIKKWLPLDQAIQEFMSRPLEETRM”, the “soluble on expression in E. coli” value is listed as “soluble”.

“GAHMVTSNVVLVSGEGERFTVDKKIAERSLLLKNYLNDMGDDDDEDDDEIVMPVPNVRSSVLQKVIEWAEHHRDSNFPDEDDDDSRKSAPVDSWDREFLKVDQEMLYEIILAANYLNIKPLLDAGCKVVAEMIRGRSPEEIRRTFNIVNDFTPEEEAAIRRENEWAEDR”: the “soluble on expression in E. coli” value is recorded as “soluble”.

Take “MMIMLDPFSEKAKELLKGFGSINDFMDAIPKIVSVDDVIERIRVVKNEKLIDKFLDQDNVMDLAQFYALLGALSYSPYGIELELVKKANLIIYSERLKRKKEIKPEEISIDVSTAIEFPTEDVRKIERVYGKIPEYTMKISDFLDLVPDEKLANYYIYEGRVYLKREDLIRIWSKAFERNVERGVNMLYEIRDELPEFYRKVLGEIQAFAEEEFGRKFGEIQGGKLRPEFFPPCIKNALKGVPQGIRNYAITVLLTSFLSYARICPNPPRRNVRVKDCIKDIRVITEEILPIIIEAANRCSPPLFEDQPNEIKNIWYHLGFGYTANPSLEDSGNSTWYFPPNCEKIRANAPQLCTPDKHCKYIRNPLTYYLRRLYLEGRRNAPKRGNKRGKKELLHQLEHHHHHH”: the “soluble on expression in E. coli” value was “soluble”.

“MSLKTFTLPASVLFCFLLLIQGLGAAPPGRPDVFPPPLSSEHNGQVAEDAVSRPKDDGVPEVRAARNPEPQDQGELFQGVDPRALASVLLQALDRPASPPSVPGGSQQGTPEEAAEALMTESVRSQTHSLPAPEIQAPAVAPPRPQTQDRDPEEDDRSEEMEALASLLQELRDFSPSNAKRQQETAAAETETRTHTLTRVNLESPGPERVWRASWGEFQARVPERAPLPPPVPSQFQARMSESAPLPETHQFGEGVSSPKTHLGETLTPLSKAYQSLGGPFPKVRRLEGSFLGGSEAGERLLQQGLAQVEAGRRQAEATRQAAAQEERLADLASDLLLQYLLQGGARQRDLGGRELQETQQERENEREEEAEQERRGGGEDDVGEEDEEAAEAEAEAEEAERARQNALLFAEEEDGEAGAEDKRSQEEAPGHRRKDAEGAEEGGEEDDDDEEMDPQTIDSLIELSTKLHLPADDVVSIIEEVEEKRKRKKNAPPEPVPPPRAAPAPTHVRSPQPPPPAPARDELPDWNEVLPPWDREEDEVFPPGPYHPFPNYIRPRTLQPPASSRRRHFHHALPPARHHPDLEAQARRAQEEADAEERRLQEQEEMENYIEHVLLHRPEGHHHHHH”: the “soluble on expression in E. coli” value is “soluble”.

With “MGSDKIHHHHHHMINVLILGAASQISRFLIPDLLADKTVYLTLFARQAPQRLGQYAGESRVTLVDGDWNQEADIEQVMSNQDIVFLASSSLVGNQNVVTVMKHTGVQRLIVAGGLGIDDEVAGKFGNWNTRMMGDYTPYKQAAKVILDSGLNTTYLRMTWLYDENGNEKYQIVPEGQPLRGTQVTRQAVAKLVTAIVRQPSLYQYANIGVVEPGTEWDKPSFY”, the “soluble on expression in E. coli” value was “not soluble”.

Take “MNYHQYYPIDVVNGPGTRCTLFVSGCVHQCRGCYNQSTQRLDSGVLFTQEAEDKIINDLNDTRIKRRGLSLSGGDPLHPANVPHILKIVKRVREECPGKDIWVWTGYTLAELDDAQREVVQYIDVLIDGKFEQDKKDLNLEWRGSSNQIIHRFTDILEHHHHHH”: the “soluble on expression in E. coli” value is recorded as “not soluble”.

Regarding “MSLSQAVSSPLYAAIDLGSNSFHMLVVRHIDGSVQTMAKIKRKVRLAAGLDEHNALSLDAMQRGWDCLSLFAERLQDIPAENIRIVGTATLRTATNAGEFIAKANQILGHPIDVISGEEEAATIYKGVAHTSGGLGRRLVVDIGGASTELIIGEGFEAKALTSLKMGCVTWLERHFKDRQLTATNFNNAILAAKQMLDPILTQYTELGWNVCVGASGTVQALQEIMLAQGMDEVITLTKLKRLQKQAMLADHLEELDIEGLTLERALVFPSGLSILIAIFESLNIEAMTLAGGALREGLVYEMVQDLRQEDIRARTIRCVQTRYQIDSAYGDQVATLASKLLAQCGGEAWINEPQAEMLLRTAAKLHEIGLTIDFKKGGEHSAYLLQHLDLPGYTRAQKHYLGEIVRRYREQLTSLPEQYALSGTSGKRVLRLLRLAVLLSHRRSPALEPMVELSAQEDKLTLTLDGEWLAKNPLTRTELELEANRQTDIGWPLSIECHEGGSHHHHHH”, the “soluble on expression in E. coli” value is on record as “soluble”.

As to “MDLHSLCVDSHALRRDGMRFLHTADWQLGMTRHFLAGDAQPRYSAARRDAVAGLKALAADVGAEFVVVAGDVFEHNQLAPQIVGQSLEAMRVIGLPVYLLPGNHDPLDASSVYTSTLFRAERPDNVVVLDRAGVHEVRPGVQIVAAPWRSKAPTTDPVAEVLAGLPTDAAIRLLVAHGGVDALDPDHDKPSLIRLAALDDALTRQAIHYVALGDKHSLTQVGSSGRVWYSGAPEVTNFDDVEPDPGHVLVVDIDESDPRHPVTVDARRIGRWRFVTLHHQVDTSRDIADLDLNLDLMTDKDRTVVRLALTGSLTVTDRAALDTCLDKYARLFAWLGLWERHTDLAVIPVDAEFTDLGIGGFAAAAVDELVATARGGDDESAVDAQAALALLLRLADRGAALEHHHHHH”, the “soluble on expression in E. coli” value is “soluble”.

Take “MTIQQAMHQMPGKPGRDAIAEGETPRKASSDEAGCPRNDSTPTGSGLLQAALTRDNLQLAFKQVRANKGAAGVDGLGIVETAEHLKTAWPGIRAQLLAGTYRPDPVRRVLIPKPGGGERKLGIPTVTDRLIQQALLQVLQPLLDPDFSNHSYGFRPERSAHQAVLAAQQYIHSGRQIVVDVDLEQFFDCVEHDVLIARLGRKVKDRDVLRLIRAYLNSGALIEGMVMTSTRGTPQGGPLSPLLANVVLDEVDKELERRGHCFVRYADDANVYVRSPKAGQRVMALLRRLYGRLGLRVNESKSAVASAFGRKFLGFSFWQSPKGEVKRRVALKALQVFKHRIRGLTPRSGGRSLPQVVENLRPYLLGWKAYFGLSQAPGLWKSLDGWIRRRLRAIQLKQWKTGKTTYRELRKLGANSDLAAAIASDSHRTWHNSAGLIHGVLTVAWFDRLGLPRLYLEHHHHHH”: the “soluble on expression in E. coli” value is reported as “not soluble”.

“MSLKILIIEDDLALARSISHNLHDLGHFCEIISSISEENKEPYDVILVSSKVCTQGRCEHFVRYNSKQIIIMMASHVNEDGVNKPIQAGARDYILKPFKMDELLRKIQYHKAYQEMTARLGFYENYLDFIHAELPLPKDFSYRPPFIIHTPSQELANAYLLQYAKERQMDFSFFSLKDTTWKELYKNKDKLERPFYIMHLEELKKDEQLKLLELARSCPIVLSYTHKEPLEFPKIVSIECGNKPLSLFNNHTTFLSIQEYEKEAIRHFSSTCTDTELANKLGISRKSLWEKRRKYNLPREGHHHHHH”: the “soluble on expression in E. coli” value is reported as “soluble”.

Turning to “MSLAETVLEKARAKNEIRIATSDSLKPWGYMDDTNKPIGFNLDVSREMGKRMGFGKVTFVTDSYKNFISGLNADRYDMVVAILTPTEERRKSADFSNPYMVVSKNIFVRDDNTSIRSLEDLAGKRLGVAAGTTDEAWARQHVKDAQIRVYDNFFLALQDLAIGRVDARITDRVTGMTAAKEGRFPVKIAGPDLSQDIGAIAYKKGQDDLAAIVNKVIQEMVDDGSLNEISRKWLAGIEMGEELKKLPKDAREGHHHHHH”, the “soluble on expression in E. coli” value was “soluble”.

As to “MGSDKIHHHHHHMVVLHSKGGFFLEILKVVDLKKHYGDVKAVDGISFTVERGTVFSFLGPNGAGKTTTVEILEGLRKKDSGEIYYFGERKDVLDRETKRKIGVCLQKSAFFENLTVWETLKLFRGLYGTGLDLKEVMGLFSLENIEKKMVKTLSGGQLQRLAVAVAFINDPEIVFLDEPTTGLDPQARRQIWDTIEHFKNLGKTIFLTTHYMEEAERLSDHVCIIDHGKIIAEGTPSSLISSSGLKTVVEFDCDQDVNVRYLEKKENHYVVETDAPEELIKDLLKNWNVSNIVIRKPNLEDVFLKLTGRDLRE”, the “soluble on expression in E. coli” value was “not soluble”.
